Source: publication PMC4200520

Molecular target: XMAP-Ct, C-terminal coiled-coil fragment of XMAP215 (Xenopus) (UniProt Q9PT63)
Test: SPR
Conditions: domain or fragment

Sequence of TD5, TACC domain fragment of XTACC3 with a deletion of helix α1 (Q9PTG8 whole entry, stated change not applied, the tested form may be a part): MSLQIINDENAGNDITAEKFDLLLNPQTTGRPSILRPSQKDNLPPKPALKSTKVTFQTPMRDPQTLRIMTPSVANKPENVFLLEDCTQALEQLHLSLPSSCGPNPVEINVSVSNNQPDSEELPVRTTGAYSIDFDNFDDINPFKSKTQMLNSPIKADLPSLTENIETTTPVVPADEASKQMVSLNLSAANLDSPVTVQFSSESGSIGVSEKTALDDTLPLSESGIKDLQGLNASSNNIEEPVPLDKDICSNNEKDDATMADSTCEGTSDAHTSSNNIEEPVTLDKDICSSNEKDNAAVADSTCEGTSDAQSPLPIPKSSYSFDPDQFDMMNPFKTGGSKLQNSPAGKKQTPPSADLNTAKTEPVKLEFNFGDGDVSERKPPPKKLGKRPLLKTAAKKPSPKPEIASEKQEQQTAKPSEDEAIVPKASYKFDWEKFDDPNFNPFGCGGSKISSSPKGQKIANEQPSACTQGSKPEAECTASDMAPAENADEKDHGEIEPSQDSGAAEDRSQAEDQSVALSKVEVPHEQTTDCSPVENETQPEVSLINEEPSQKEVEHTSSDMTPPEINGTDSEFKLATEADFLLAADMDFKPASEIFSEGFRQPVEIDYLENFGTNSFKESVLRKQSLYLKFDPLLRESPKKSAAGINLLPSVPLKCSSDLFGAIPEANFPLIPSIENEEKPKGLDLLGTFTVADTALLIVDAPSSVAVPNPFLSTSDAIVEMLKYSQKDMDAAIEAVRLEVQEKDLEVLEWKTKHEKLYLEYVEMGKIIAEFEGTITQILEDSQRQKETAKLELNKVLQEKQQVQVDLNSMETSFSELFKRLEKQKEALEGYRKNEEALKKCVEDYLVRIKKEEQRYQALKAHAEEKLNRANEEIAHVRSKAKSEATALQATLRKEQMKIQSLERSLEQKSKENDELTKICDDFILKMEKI
Sequence of XMAP-Ct, C-terminal coiled-coil fragment of XMAP215 (Xenopus) (Q9PT63 2002-2065): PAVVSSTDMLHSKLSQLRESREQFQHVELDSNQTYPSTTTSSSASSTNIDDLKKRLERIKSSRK

TD5, TACC domain fragment of XTACC3 with a deletion of helix α1
Kd: 4.3 µM
